Starred links: 1 amine or outer side, 2 acyl side, 3 side chain; linkers in the order of their positions; H or OH if unused. Positions of bridges follow the written chain, without caps; N, C: chain ends. No end group written: not given here. Suc = O=C(CCC(=O)[*:2])[*:1]
B1: cyclic peptide CP8 (peptide)
peptide: CLYRDPLGVAGGMGC
modifications: not fully specified (bridges); cysteine pairing not given here
notes: source: synthetic peptide (manual solid phase Fmoc chemistry, iodine oxidation, RP-HPLC)
B2: cyclic peptide CP11 (peptide)
peptide: CYRDPLGVAGGMC
modifications: disulfide 1-13
notes: as for B1
B3: linear peptide LP1 (peptide)
peptide: Suc-VSLYRDPLGVAGGMGVY-NH2
notes: source: synthetic peptide (manual solid phase Fmoc chemistry, RP-HPLC)
B4: cyclic peptide CP14 (peptide)
peptide: LYEDPLGVAGGMG
modifications: head-to-tail lactam cyclized (no template)
notes: as for B3

biological target: T1, hemagglutinin (HA) ectodomain of A/Vietnam/1203/2004 (H5N1) (influenza A virus A/Vietnam/1203/2004 …); assay: cell-based or functional assay; settings: not given

Row | Binder | virus neutralization assay (VNA) EC50, H5/Viet virus [µM]
1 | B1 | 34.6

biological target: T1, hemagglutinin (HA) ectodomain of …; assay: AlphaScreen or HTRF; settings: both partners purified

Row | Binder | IC50 [µM]
2 | B2 | 7.78
3 | B3 | 47.9
4 | CYEDPLGVAGGMC (not fully specified; cysteine pairing not given here) [cyclic peptide CP12] | 28.8
5 | B4 | 10
6 | B1 | 1.55
7 | CYRDPLGVAGEMC (not fully specified; cysteine pairing not given here) [cyclic peptide CP13] | 39.8

Reference: PMC12714728 (npj Viruses, 2025)
